Test system: SULT1C1
Experiment: SULT1C1 enzyme activity assay: sulfate conjugation of 4-nitrophenol with 35S-PAPS, COS-1 cytosol of recombinant allozymes
Assay type: biochemical, human
Details: for Km: apparent Km for PAPS, in the presence of 10 mM 4-NP, six PAPS concentrations 0.0625 μM to 2 μM; for % WT activity: recombinant allozyme in COS-1 cytosol, 10 mM 4-NP, 0.4 μM 35S-PAPS, pH 7.4, percentage of wild type SULT1C1 enzyme activity; for activity relative to the reference (wild type) SULT1C1: statement in words
Description: In some embodiments, activity of SULT1C1 polypeptides is altered relative to the reference SULT1C1. […] Other allozymes can have increased activity relative to the reference SULT1C1. Activity of SULT1C1 polypeptides can be assessed in vitro using a sulfate acceptor substrate such as 4-nitrophenol (4-NP, Sigma Chemical Co., St. Louis, Mo.) and a donor sulfate molecule such as PAPS. In general, recombinant SULT1C1 polypeptides can be incubated at 37° C. with 10 mM of sulfate acceptor substrate in a potassium phosphate buffer (5 mM, pH 7.4) and 0.4 μM labeled PAPS (e.g., ^35S-PAPS from New England Nuclear Life Science Products, Inc., Boston Mass.). Reactions can be stopped by precipitating PAPS and SULT1C1 polypeptide (e.g., with barium hydroxide, barium acetate, and zinc sulfate). After centrifugation of the reaction, radioactivity in the supernatant is assessed. SULT1C1 activity is expressed as nmoles of sulfate conjugated product formed per hour of incubation. See, Campbell, N. R. C. et al., Biochem. Pharmacol., 36:1435-1446 (1987).
Other biochemical properties of allozymes, such as apparent Km values, also can be altered relative to the reference SULT1C1. Apparent Km values can be calculated, for example, by using the method of Wilkinson with a computer program written by Cleland. Wilkinson, Biochem. J., 80:324-332 (1961); and Cleland, Nature, 198:463-365 (1963). As described herein, the apparent Km values for PAPS vary 7-fold among the allozymes tested (Asp60Ala, Arg73Gln, Phe193Leu, Asp200Val, Thr239Ala, and Ser255Ala).
COS-1 Cell Expression: Nine different SULT1C1 expression constructs were made using the p91023(B) expression vector. See, Wong et al., Science (1985) 228:810-815, for a description of the p91023(B) vector. Eight of the constructs were designed to express variant SULT1C1 polypeptides, while the remaining construct was designed to express a wild type SULT1C1. All SULT1C1 cDNA sequences used to create the expression constructs were created by site directed mutagenesis using the method described by Ho et al., Gene (1989) 77(l):51-9. Each SULT1C1 cDNA was amplified by PCR and subcloned into the EcoRI restriction site of the eukaryotic expression vector p91023(B). After subcloning, all inserts were sequenced to assure that no spurious nucleotide point mutations had been introduced during the PCR amplifications. […] As a control, a transfection was also performed with “empty” p91023(B), i.e., vector lacking an insert, to make it possible to correct for endogenous COS-1 cell SULT activity. The control plasmid pSV-β-galactosidase (Promega, Madison, Wis.) was cotransfected with each SULT1C1 construct to make it possible to correct for transfection efficiency. Two independent transfections, each consisting of three separate plates, were performed with each of the expression constructs. After 48 hours in culture, the transfected cells were harvested and high speed supernatant (HSS) cytosol preparations were prepared as described by Wood, T. C. et al., Biochem. Biophys. Res. Commun., 198:1119-1127 (1994). Aliquots of these cytosol preparations were stored at −80° C. prior to assay.
Enzyme Assays: β-galactosidase activity in each of the COS-1 HSS preparations was measured with the β-galactosidase Enzyme Assay System (Promega, Madison, Wis.). SULT1C1 enzyme activity was measured with an assay that involves sulfate conjugation of a sulfate acceptor substrate, 4-nitrophenol (4-NP), in the presence of [^35S]-3′-phosphoadenosine-5′-phosphosulfate (PAPS), the sulfate donor for the reaction. See, Campbell, N. R. C. et al., Biochem. Pharmacol., 36:1435-1446 (1987). The HSS preparations of recombinant SULT1C1 variant proteins described above were used for the activity studies without any further purification. The protein concentration of each recombinant protein preparation was determined by the dye-binding method of Bradford with bovine serum albumin (BSA) as a standard. […]

Molecule	% WT activity	activity relative to the reference (wild type) SULT1C1	Km
Asp60Ala: SULT1C1 polypeptide having an alanine at amino acid residue 60 in place of aspartic acid (protein) MALTSDLGKQIKLKEVEGTLLQPATVDNWSQIQSFEAKPDDLLICTYPKAGTTWIQEIVAMIEQNGDVEKCQRAIIQHRHPFIEWARPPQPSGVEKAKAMPSPRILKTHLSTQLLPPSFWENNCKFLYVARNAKDCMVSYYHFQRMNHMLPDPGTWEEYFETFINGKVVWGSWFDHVKGWWEMKDRHQILFLFYEDIKRDPKHEIRKVMQFMGKKVDETVLDKIVQETSFEKMKENPMTNRSTVSKSILDQSISSFMRKGTVGDWKNHFTVAQNERFDEIYRRKMEGTSINFCMEL	13.9 ± 0.3%	reduced activity	4 ± 0.47 µM
Asp200Val/ Thr239Ala: double variant SULT1C1 polypeptide with a valine at amino acid 200 and an alanine at amino acid 239 (protein) MALTSDLGKQIKLKEVEGTLLQPATVDNWSQIQSFEAKPDDLLICTYPKAGTTWIQEIVDMIEQNGDVEKCQRAIIQHRHPFIEWARPPQPSGVEKAKAMPSPRILKTHLSTQLLPPSFWENNCKFLYVARNAKDCMVSYYHFQRMNHMLPDPGTWEEYFETFINGKVVWGSWFDHVKGWWEMKDRHQILFLFYEDIKRVPKHEIRKVMQFMGKKVDETVLDKIVQETSFEKMKENPMANRSTVSKSILDQSISSFMRKGTVGDWKNHFTVAQNERFDEIYRRKMEGTSINFCMEL	49.3 ± 2.8%	reduced activity	1.82 ± 0.14 µM
Phe193Leu: SULT1C1 polypeptide having a leucine residue at amino acid 193 in place of a phenylalanine (protein) MALTSDLGKQIKLKEVEGTLLQPATVDNWSQIQSFEAKPDDLLICTYPKAGTTWIQEIVDMIEQNGDVEKCQRAIIQHRHPFIEWARPPQPSGVEKAKAMPSPRILKTHLSTQLLPPSFWENNCKFLYVARNAKDCMVSYYHFQRMNHMLPDPGTWEEYFETFINGKVVWGSWFDHVKGWWEMKDRHQILFLLYEDIKRDPKHEIRKVMQFMGKKVDETVLDKIVQETSFEKMKENPMTNRSTVSKSILDQSISSFMRKGTVGDWKNHFTVAQNERFDEIYRRKMEGTSINFCMEL	39.3 ± 1.4%	reduced activity	2.95 ± 0.27 µM
Arg73Gln: SULT1C1 polypeptide having a glutamine at amino acid residue 73 in place of an arginine (protein) MALTSDLGKQIKLKEVEGTLLQPATVDNWSQIQSFEAKPDDLLICTYPKAGTTWIQEIVDMIEQNGDVEKCQQAIIQHRHPFIEWARPPQPSGVEKAKAMPSPRILKTHLSTQLLPPSFWENNCKFLYVARNAKDCMVSYYHFQRMNHMLPDPGTWEEYFETFINGKVVWGSWFDHVKGWWEMKDRHQILFLFYEDIKRDPKHEIRKVMQFMGKKVDETVLDKIVQETSFEKMKENPMTNRSTVSKSILDQSISSFMRKGTVGDWKNHFTVAQNERFDEIYRRKMEGTSINFCMEL	14.5 ± 1.9%	reduced activity	0.57 ± 0.15 µM
Asp200Val: SULT1C1 polypeptide having a valine at amino acid 200 in place of an aspartic acid (protein) MALTSDLGKQIKLKEVEGTLLQPATVDNWSQIQSFEAKPDDLLICTYPKAGTTWIQEIVDMIEQNGDVEKCQRAIIQHRHPFIEWARPPQPSGVEKAKAMPSPRILKTHLSTQLLPPSFWENNCKFLYVARNAKDCMVSYYHFQRMNHMLPDPGTWEEYFETFINGKVVWGSWFDHVKGWWEMKDRHQILFLFYEDIKRVPKHEIRKVMQFMGKKVDETVLDKIVQETSFEKMKENPMTNRSTVSKSILDQSISSFMRKGTVGDWKNHFTVAQNERFDEIYRRKMEGTSINFCMEL	48.1 ± 4.2%	reduced activity	1.2 ± 0.12 µM

Second part, led by results:

% WT activity	activity relative to the reference (wild type) SULT1C1	Molecule	Km
0%	reduced activity	Ser111Phe: SULT1C1 polypeptide having a phenylalanine at amino acid 111 in place of a serine (protein) MALTSDLGKQIKLKEVEGTLLQPATVDNWSQIQSFEAKPDDLLICTYPKAGTTWIQEIVDMIEQNGDVEKCQRAIIQHRHPFIEWARPPQPSGVEKAKAMPSPRILKTHLFTQLLPPSFWENNCKFLYVARNAKDCMVSYYHFQRMNHMLPDPGTWEEYFETFINGKVVWGSWFDHVKGWWEMKDRHQILFLFYEDIKRDPKHEIRKVMQFMGKKVDETVLDKIVQETSFEKMKENPMTNRSTVSKSILDQSISSFMRKGTVGDWKNHFTVAQNERFDEIYRRKMEGTSINFCMEL	
100%		wild type: reference human SULT1C1 polypeptide (SEQ ID NO:2, GenBank U66036), recombinantly expressed in COS-1 cells (protein, listed as Homo sapiens) MALTSDLGKQIKLKEVEGTLLQPATVDNWSQIQSFEAKPDDLLICTYPKAGTTWIQEIVDMIEQNGDVEKCQRAIIQHRHPFIEWARPPQPSGVEKAKAMPSPRILKTHLSTQLLPPSFWENNCKFLYVARNAKDCMVSYYHFQRMNHMLPDPGTWEEYFETFINGKVVWGSWFDHVKGWWEMKDRHQILFLFYEDIKRDPKHEIRKVMQFMGKKVDETVLDKIVQETSFEKMKENPMTNRSTVSKSILDQSISSFMRKGTVGDWKNHFTVAQNERFDEIYRRKMEGTSINFCMEL	0.77 ± 0.04 µM
52.6 ± 1.7%	reduced activity	Thr239Ala: SULT1C1 polypeptide having an alanine at amino acid 239 in place of a threonine (protein) MALTSDLGKQIKLKEVEGTLLQPATVDNWSQIQSFEAKPDDLLICTYPKAGTTWIQEIVDMIEQNGDVEKCQRAIIQHRHPFIEWARPPQPSGVEKAKAMPSPRILKTHLSTQLLPPSFWENNCKFLYVARNAKDCMVSYYHFQRMNHMLPDPGTWEEYFETFINGKVVWGSWFDHVKGWWEMKDRHQILFLFYEDIKRDPKHEIRKVMQFMGKKVDETVLDKIVQETSFEKMKENPMANRSTVSKSILDQSISSFMRKGTVGDWKNHFTVAQNERFDEIYRRKMEGTSINFCMEL	1.14 ± 0.11 µM
98.9 ± 5.9%	comparable to the reference SULT1C1	Ser255Ala: SULT1C1 polypeptide having an alanine at amino acid 255 in place of a serine (protein) MALTSDLGKQIKLKEVEGTLLQPATVDNWSQIQSFEAKPDDLLICTYPKAGTTWIQEIVDMIEQNGDVEKCQRAIIQHRHPFIEWARPPQPSGVEKAKAMPSPRILKTHLSTQLLPPSFWENNCKFLYVARNAKDCMVSYYHFQRMNHMLPDPGTWEEYFETFINGKVVWGSWFDHVKGWWEMKDRHQILFLFYEDIKRDPKHEIRKVMQFMGKKVDETVLDKIVQETSFEKMKENPMTNRSTVSKSILDQSISAFMRKGTVGDWKNHFTVAQNERFDEIYRRKMEGTSINFCMEL	0.56 ± 0.06 µM
